Legend:
[1] = biological target: T1, CREB 285bZIP wild type (pseudo-WT, Cys to Ser) (human, UniProt P16220-1 285-339, C300S;C310S;C337S); test: stopped-flow fluorescence (koff/kon); koff 2.44 s-1 averaged over competitor concentrations; 10 mM Mg2+; 10 mM MES pH 6.5, 150 mM NaCl, 10 mM MgCl2, 0.05% Tween-20, 25 C; NMR: 10 mM Tris-d11, 150 mM NaCl, 10 mM MgCl2, 1 mM NaN3, 5% D2O (NOE at 25 C); conditions: protein: recombinant; tags: extra N-terminal Gly after TEV cleavage; His6-GB1 removed; chain copies: 2; label: 5' Alexa Fluor 488; hairpin (self-annealing, 11 bp stem, CCCC loop)
T1 sequence: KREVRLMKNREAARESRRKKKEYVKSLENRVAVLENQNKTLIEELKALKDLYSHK

[2] = biological target: T1, CREB 285bZIP wild type (pseudo-WT, Cys …); test: stopped-flow fluorescence (koff/kon); koff 2.531 s-1; kon 6.7 nM-1 s-1; 10 mM Mg2+; 10 mM MES pH 6.5, 150 mM NaCl, 10 mM MgCl2, 0.05% Tween-20, 25 C; NMR: 10 mM Tris-d11, 150 mM NaCl, 10 mM MgCl2, 1 mM NaN3, 5% D2O (NOE at 25 C); conditions: protein: recombinant; tags: extra N-terminal Gly after TEV cleavage; His6-GB1 removed; chain copies: 2; label: 5' Alexa Fluor 488; hairpin (self-annealing, 11 bp stem, CCCC loop)
285bZIP E295A = biological target: T2, 285bZIP E295A (human, UniProt P16220-1 285-339, C300S;C310S;C337S;E295A); test: stopped-flow fluorescence (koff/kon); 10 mM Mg2+; 10 mM MES pH 6.5, 150 mM NaCl, 10 mM MgCl2, 0.05% Tween-20, 25 C; NMR: 10 mM Tris-d11, 150 mM NaCl, 10 mM MgCl2, 1 mM NaN3, 5% D2O (NOE at 25 C); conditions: protein: recombinant; tags: extra N-terminal Gly; chain copies: 2; label: 5' Alexa Fluor 488; hairpin (self-annealing, 11 bp stem, CCCC loop)
T2 sequence: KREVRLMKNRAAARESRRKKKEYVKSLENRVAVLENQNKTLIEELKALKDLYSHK

285bZIP E295G = biological target: T3, 285bZIP E295G (human, UniProt P16220-1 285-339, C300S;C310S;C337S;E295G); test: as above; conditions: protein: recombinant; tags: extra N-terminal Gly; chain copies: 2; label: 5' Alexa Fluor 488; hairpin (self-annealing, 11 bp stem, CCCC loop)
T3 sequence: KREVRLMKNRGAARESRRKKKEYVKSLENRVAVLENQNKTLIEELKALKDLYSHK

285bZIP E299A = biological target: T4, 285bZIP E299A (human, UniProt P16220-1 285-339, C300S;C310S;C337S;E299A); test: as above; conditions: protein: recombinant; tags: extra N-terminal Gly; chain copies: 2; label: 5' Alexa Fluor 488; hairpin (self-annealing, 11 bp stem, CCCC loop)
T4 sequence: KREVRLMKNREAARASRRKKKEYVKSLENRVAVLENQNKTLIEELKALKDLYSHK

285bZIP K309G = biological target: T5, 285bZIP K309G (human, UniProt P16220-1 285-339, C300S;C310S;C337S;K309G); test: as above; conditions: protein: recombinant; tags: extra N-terminal Gly; chain copies: 2; label: 5' Alexa Fluor 488; hairpin (self-annealing, 11 bp stem, CCCC loop)
T5 sequence: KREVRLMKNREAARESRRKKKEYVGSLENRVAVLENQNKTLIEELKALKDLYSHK

285bZIP V288G = biological target: T6, 285bZIP V288G (human, UniProt P16220-1 285-339, C300S;C310S;C337S;V288G); test: as above; conditions: protein: recombinant; tags: extra N-terminal Gly; chain copies: 2; label: 5' Alexa Fluor 488; hairpin (self-annealing, 11 bp stem, CCCC loop)
T6 sequence: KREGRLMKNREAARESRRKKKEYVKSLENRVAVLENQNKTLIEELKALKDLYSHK

285bZIP K309A = biological target: T7, 285bZIP K309A (human, UniProt P16220-1 285-339, C300S;C310S;C337S;K309A); test: as above; conditions: protein: recombinant; tags: extra N-terminal Gly; chain copies: 2; label: 5' Alexa Fluor 488; hairpin (self-annealing, 11 bp stem, CCCC loop)
T7 sequence: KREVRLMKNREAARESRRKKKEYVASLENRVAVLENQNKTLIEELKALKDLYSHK

285bZIP E287A = biological target: T8, 285bZIP E287A (human, UniProt P16220-1 285-339, C300S;C310S;C337S;E287A); test: as above; conditions: protein: recombinant; tags: extra N-terminal Gly; chain copies: 2; label: 5' Alexa Fluor 488; hairpin (self-annealing, 11 bp stem, CCCC loop)
T8 sequence: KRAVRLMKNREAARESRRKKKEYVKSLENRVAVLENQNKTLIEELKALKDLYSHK

285bZIP V288A = biological target: T9, 285bZIP V288A (human, UniProt P16220-1 285-339, C300S;C310S;C337S;V288A); test: as above; conditions: protein: recombinant; tags: extra N-terminal Gly; chain copies: 2; label: 5' Alexa Fluor 488; hairpin (self-annealing, 11 bp stem, CCCC loop)
T9 sequence: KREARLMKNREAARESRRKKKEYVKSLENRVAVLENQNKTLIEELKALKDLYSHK

B1: AlexaFluor488-CREh (structured_DNA)
DNA: CCTGACGTCAGCCCCCTGACGTCAGG
B1 showed a Kd [1] of 0.36 ± 0.04 nM, a Kd [2] of 0.38 ± 0.03 nM and a Kd (285bZIP E295A) of 0.239 ± 0.016 nM. It also gave a Kd (285bZIP E295G) of 6 ± 0.4 nM, a Kd (285bZIP E299A) of 0.0711 ± 0.0011 nM and a Kd (285bZIP K309G) of 26 ± 2 nM. For the same binder, the Kd (285bZIP V288G) was 2.77 ± 0.16 nM, the Kd (285bZIP K309A) was 2.12 ± 0.08 nM and the Kd (285bZIP E287A) was 1.89 ± 0.11 nM. For the same binder, the Kd (285bZIP V288A) was 0.46 ± 0.05 nM.
